Measured values as given in a protein production outcome set (Wang et al. 2014).

Experiment: label from the status in PepcDB records

Row | Sequence | protein production
1 | MLWFLTCVAALVGGYFIYGAFVEKVFGINEKRQTPAHTKTDGVDYVPMSTPKVYLVQLLNIAGVGPIFGPIMGALYGPAAMLWIVVGCIFAGAVHDYFSGMLSIRNGGASVPSITGRYLGNGAKHFMNIFAIVLLLLVGVVFVSAPAGMITNLINQQTDFTVSMTTMVVIIFAYYILATIVPVDKIIGRFYPLFGALLIFMSVGLMTAIAFSSEHQVLGGFEISDMVKNLNPNDMPLWPALFITIACGAISGFHATQSPLMARCMENEKNGRFVFYGAMIGEGIIALIWCTVALSFFGSLEALSEAVKNGGPGNVVYGASFGLLGVFGGVIAFLGVVILPITSGDTAFRSSRLILAEYFNMEQKTLRNRLLMAVPLFVIGAVLTQVDFGIIWRYFGFANQATAVMMLWTATAYLMRHNKLHWICTVPALFMTTVCISFILNSSTLGFGLPMQISTIAGVLASLGALAYVAKVSKGKGETDLADEEKPQGVTKTA | failed
2 | GQDYLDIIGRLLPVLPYNLAIIGADGQVLLMNPPMSRITGMSLRQFVMYPSDWVVQEDKAAVADAVRRYSSGRALSGEISVRLIAKPEETVILTLTGIRHLGESALMISLQESASENEIKQQMAQTTRMQAIGQLAGGVAHDFNNILTAI | failed
3 | VFGVKEWECEVLSNKNVSTFIKEFVVKLPEGETMNFKSGSYAQIKIPKYNIRYADYDIQDRFRGDWDKMDAWSLTCKNEEETVRAYSMANYPAEGNIITLNVRIATPPFDRAANKWKAGIKPGISSSYIFSLKPGDKVMMSGPYGDFHIQDTDAEMLYIGGGAGMAPLRAQILHLFRTLKTGRKVSYWYGARSKNEIFYEEDFREIEREFPNFKFHIALSDPQPEDNWTGYVGFIHQVIYDNYLKDHDAPEDIEYYMCGPGPMANAVKGMLENLGVPRNMLFFDDFG | not failed
4 | MANVSMEAKGLLILGFPIAATMIAQTLMSLTDLMLVSRLGEKQVAGVSLGIAVYSFGMLFGLGVITAVTPMIAKAYGRKDFNAVSNYTRQGLWVAALVAMPGVIALILTRSILLFLNVEAETANIASDYCVGALMGLPAFLIYVNLRCFLSAIGRPKTTTWIMFLAVPVNYIIGHVLIFGVMDAEGLGITGAGLASSVTRLAILSTVIATLKYGADFKCFSLFENVMNVKPVVVKKIVLLGLPVGVRILLAEGMLPIIALLISTLGTIDLVAHMVAVRLSGVSAVIALGFSSAASTRVAWQVAANNQNGVRVTGYVASALAFGVSALLAMLLIFFPTELVMLLFDIDDAEVLALTSHLLKVVAAYQILNAIQTAVVGSLLGVSDTKIPTCLVLIGNWLVGLASAYGLVVLFEATVTAVWGGLVLGQVFVVVTCLCRFHMKTKALHE | failed
5 | MPLRCTKPLGATPATPTAPPTGRKGHQVAINGFITWILVTMSLVVYFLWAFIPTSFLDMVLASYYPDKYWAVAIPAILVMTMVYYLTVHFLLMLYRTDPLTDGFCVAQTNGAVRHESIENLVDVEDGVPPITDIPVSVASRLLFQPWN | failed
6 | MKISFSESQKLFAYFSGLIAALSLFIYYVSAQQSEGALILCITFGVIAAGIWFGPIYALAVTLIVLFVLGTLMMFFQTGQTSLFPAEEGLRMLVVWGIALLLFSFISGRIHDITAELRRSMTRLQSEIKSYVAVDRVTGFDNKQRMKLELSEEIKRAERYGNSFVFLLLHMHYFKEFKSLYGEKETDRLFQYVGQQIRTSVRETDKKFRPSDERIGIVLTHTPAEHMPAVLTKLKKQLDTYQLENGKYVSLTFHVCYLPYRNDIQTADQFLEELENEMMMNEL | failed
7 | MRKIQFPFCILDVIQRKGVRVLYIIIPIVVLLLIFLFAGYVKAPPNKAAIITGLSKNPRVLLGKSGFKVPFFERVDWLEVGQININVVTEDYIPTKDFINIKVDAIAQVAMEVSNNQVSAVAMRNFLNRKADDVRSMITESLQGNLREIIGTMDLKSICQDKAKFSQEVKQNAEQDMKELGIRILSFNVQNVNDKDGLIDDLGIDNRETIRKTARVAKANADRDVEVASAEAANKASEAKVAAELAIAQRNNDLEIRKAELKIGEDTKKAEADAAYEIQKQTSRKTVEIREQEADIARREKEIELQTKEAEVAEKKLDAEIRKKAEADKYAEMQNADAELYRRQKDAEAQQYEAEKEAAAIRAKGLAEAEAIRQKGLAEAEALDKKAEAMKKYGQAAILEMIVGVLPDIAKSVAEPLSAIDKVTVIGGNSDGVSDLAGNVPIIMGKVMESVKEATGIDMNEIIRAETFEGKTTKNINFTGLDQVGEEIAQGAAQSVSETLQETE | failed
8 | MFIGGAIISFLFLFGYMWKEAHSNRIRHVTLSFPHFPDNGPPLTIFFISDIHRRSVSCRMLETVKGKADLVVIGGDLAEKGVPAARVRENVRRLQTVAPVYFVWGNNDDEVDYDLQSLLEEERVYVLKNKAEVWEHGGVPIALIGVGDVSRKEADIARALEHVPPESFRILACHNPAIIARLEDEQHISLVLSGHTHGGQIRLFSFGLYEKGGLKWHGNTALFTSNGYGTTGVPLRLGAPAETHLIKIVPGKLATEKKCLSKTGKTMLEHHHHHH | failed
9 | MEGYRLLYPMRTYLIVSGHGEETNVMAADWVTVVSFDPFIVGVAVAPKRTTHKLIKKYGEFVISVPSLDVLRDVWIAGTKKGPSKLKEMSVTLIPSKKVKVPSIEEALANIECRVIDARSYGDHTFFVGEVVGYTYKDYAFEKGKPNLKAKFLAHVSWSEFVTFSEKVHKAE | not failed
10 | MLSSVFQVLGGLALFLLAMEMMTNGLKNAAGHHLRHMLGHWTRTPLRALFAGFVITGIVQHSGAVTVATIGFVNAGLMTLAQSLGVVFGSNIGTTMTGWLVSLIGFGFKIEAMALPLLAAGVGFKLVSRNPRNQFLGEALAGFALFFLGLSILKTALESSALGFQNGHLINADYGLPAFMLIGLLATVLTQSSSAALAIVLTAAAGGLIPLDNAAAAVIGANLGSTSTAALSALKATANARRLATGHILFNLVTGVIALLVLPAMLWLVNTLTNLLDLEANPAVSLALFHTLFNVLGAAIMLPFTQPFARFLGRLFRSKEEDNAEPRYLDDTLVTTPELAIGAVDQEMKRLIGHSRGLLRVCLDRESLEESDVRPKADAVRNLNLAITDYIGRLRAEKMHPSVVDALTLSIRTCRYLAEATELTLHLVRLRALARRTDFETLESVFNRYFEVIRALVASETPVPEQLQEAETVYHQLKAATLQKMIRREFSSSLGAQVLDELSAVRRLTDQWSKALYWQDGVGLLNQSHDQASAS | failed
11 | MKQNQYLFLLFTLIVLTGCGGTQKKLTEYVNPFLGTATLWEPEDLGYTRKIKSRTWGAETYPGATLPNAMVQLSPVTQFRSGAGYQYEDTVIYGFSHTAKGHWNLLHVPMLPVVGTIAPGNYCSGFSHEKESAHPGYYQVYLERYKVNAELTSTLRCAYHKYTFAKGDDKSLLVDIRRSNNDVRDWKIEKVDDNTFTGYQDGDGKIYFYAKTNYKIGQVEMVKDDKHEVAVLRFIDSKGVEPLEVKAGFSFVSIENAQMNLKAEMLNKSFAQVAEEADAAWEALLSKIQVAGGTEREKRLFYSTFFHAFKWPALRSDVNHEYTDVRGEVVNNGFHYYTDPSFWDDYRNKLVLIGMISPDVTTDIIRSIIDKGEKRDGYMPTFFHGDHASTFISGSWLRGLHDFDLERAYKLILKNATVPGKGGRRYLDEYMERGWIAEKDTVNVPTWDEYKGAVTKTQEYAYDDYAVALVAKELGDEANYKLMMERSNNYKTLFDPSTGFWRGKIDDGSWIQDFDPYYPYYQYMYREANAWNALFFAPHDPEGMIKLYPSKEAVEAKLDSLFSEPWRGYEAHNLTGFIGNYCHGNQPGHSIPYTYYFIDKQEKAQCILDSLMNHYYDMGADKLAYAGMDDAGEMSSWYVLNAIGLYTYSPADPEYIVTVPLFDKVTFNLNGRPFTIVKKGSGKKIIDITYDGKKIDGYFITHDQLREGKELVITTE | failed
12 | MNELILLRQLAENQQYPSLLELAQSLWYDSGNPAVLPLLATANAHMGLKENTQALYQQSLKHFDVLDVDARCDLAVVLIVMQRIDDAIKMLSDILMEQGNHALALARLAYCYLASGRLAEAQHFFEKSLIITPERFIVHRNLVAVYIAQNELNQAQKQLDSATEVLVNYHKVGDPLYQQYWFQLNTTQLQLWVVQGLFCPAEEWLTQLSVRQQAGDYDEAVLVQYVKSYSQVLAEKNFHQQATNILREYLKQYNNNVELCMALAELAQVQGHFMQAISLLQKALKKDEGNSDLWVQLSTACLHRFDKKARKAAVRAVSLAEALEITDEQSLVLIKMKQAQANNALAEVECQEQNFEVSEKLYRDILAEHSHFLPALQGLGQQQMQQGNIDEAVALFERIKDIDLLKGCSALINVRRFPDDVEALDKMAIAANKPSMEGSLRAGILFQLAAAWEKKKDYNKAFRFAEQANNASKKFLSYNAQKHREDCARLRACFNKTLYQHRPNYGIESTIPVYVLGMPRSGTTLVEQILSGHSDIFGAGELGVIPQVIQGINRWERHTGSGRQYPDCIDDFNADTIAGIANNMLKELQELAAETKPESKYVVDKMPHNFENIGLIKFLFPNAKIISVRRDPRDIAMSNYFTDYQAKHGGMGFAYDLEHIGEQLADHNLLMHHWQQTFPDEILEINYEDVVDDIEGCARKMLSYIGVNWQPKVLKFNELVRTVKTASVWQVRQPIYKTSKGKWLRYQTRLTPLIKGTNAKIVSHPITDLLTLPEPGFLTDGVALYKEGKLDDAEMCFKKMLHHNPGHAACHYMIGLVYLTKNHAQDGIRHFEKAVASCPWQKEWRQNLLKAYEQEGETNKIAAFKKGNQRTTANDANNAVTYDEHFTSDAFTTKTTVSQ | failed
13 | MSSEGRNHNWDYAAIGTPEDFLASWSASRGNLRRFFEDHAAAPINDAAQRQAGEAAATQAVAAIYGMELNEFNAGVDAVAGAIESAGAIHVSIPDPDVPQDVGAAAFFDVDNTLIQGSSLIVFAQGLFRKKFFTIKEILPVVWKQVKFKLTGSENAEDVSRGREQALEFIKGRPVQELVDLCEEIVDQRMADKMWPGTKQLADMHIAAGHQVWLVSATPVQLAQILAQRLGFTGAIGTVAEAKDGVFTGRLVGDILHGPGKRHAVAALASIEQLDLTRCTAYSDSINDLPMLSMVGTAVAVNPDSKLRKEAETRGWDVRDFRSIRKATREYGIPALVTAAFSVAGWRLRRRWRKQ | failed
14 | MVYPRMGRVPLPPKGAQHYTTMCQFCNVGCGYDVYVWPAGAEGSPEPGGHGIEYKIVDEAYGRNLVKQPDFTKEHTGLSAEEGEPWISEAMVVKTIRRTWERGRGTGGWREVYVAQVPSPECPINWGNHSVRGGTQAERIWSPWNIAGERRLTKPLVRFGGRLEPVSWEYAIDLVARVVKGVIDKWGIERPGWGKEGHAVFAHRMDHGGGGGGGMIFNTVVGLFFFYGVRTAFARIHNRPFFGPENPAAGDAGPGAMNTSYHDLRLADTIILWGNNPYSTATVMFVKHVLDNLRGATKAEKQRWFNPGEPVIDSRIIIVDPRRTETVEAAEAAAGKDRVLHLQVKPGTDIVLANAIARVIYERYGDVVEEFVNHYRSAAGWGFKWDEEGFQKYVSEALQVGEETLDEVLAEAESITGVPRDKIELAAKWIAERKEGGYPKRVWLMYEKGIIWNQNYRSIYSLFDLCMIAGATRGLPGCGCQRQGGHQEGFASPAPPPPPWTDERHHIAYPDKSLYDEYYNTKYPRADFYMPTTDFRLANGEGKVLWVIDMDNYRLAPNSQRLKAVVGDRAWRVTRYVFAEAYANVGGKESEPNYDPNALEPVITTPPSSREYAEKVLQALEETGGLFVIVEDIYPTFMVEDAHVVLPAAFNNGEWPDVRMGVHERRFRIADAWLDPPGEAKPDWWILANVAKRIVELYEEEGRGGDPVAERFRKAFKPIWDAMEANARDPTVEVENEIFKTYIANADEAYARLGVHWEVQYWTPEFKKLDLNILRKLRTIGTVLPITKLDVKPDGTIEVRGVVNIMEPALNDTYREEVVVVKPDGTIVRRIEVVPSNETVRSYVPGHLKPWPAVWDKYPPYVDELIRKGYKYWVVNGRYNAIWQTGYADPNVVEIMARHPMNIVQVNPEDAAKEGLENGDIVVIYNDYGSTTAMVWVTRVVAPGTIFLIMAHPKAVGANAVTTPSVDPAAQNPDYKLTLANLRKIGRADETIIKKVTFKDIRFAVR | failed
